Article PMC7033311, “The Eaf3 chromodomain acts as a pH sensor for gene expression by altering its binding affinity for histone methylated-lysine residues” (Bioscience Reports, 2020)
Substitutions are numbered along the chain they refer to. Read-outs that look alike come from different tables or passages of the source. Where no end group is shown, it is not given here. [ ]: non-standard residue; d: D form. me2 = dimethylated (di-methylated lysine); Lys(Me3) = C[N+](C)(C)CCCC[C@H](N)C(=O)O; pT = C[C@@H](OP(=O)(O)O)[C@H](N)C(=O)O; Lys(Me2) = CN(C)CCCC[C@H](N)C(=O)O

Experiments:
Eaf3 CD Y23A = Eaf3 CD Y23A (Saccharomyces cerevisiae, UniProt Q12432, Y23A); format: binding; conditions: pH 6.8
Chain of Eaf3 CD Y23A (Q12432 1-120 Y23A limits assumed): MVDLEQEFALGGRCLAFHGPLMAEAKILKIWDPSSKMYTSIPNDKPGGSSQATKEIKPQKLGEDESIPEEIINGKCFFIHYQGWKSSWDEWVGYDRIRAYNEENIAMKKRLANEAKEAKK

Eaf3 CD W84A = Eaf3 CD W84A (Saccharomyces cerevisiae, UniProt Q12432, W84A); format: binding; conditions: pH 6.8
Chain of Eaf3 CD W84A (Q12432 1-120 W84A limits assumed): as the sequence (Q12432 1-120 Y23A limits assumed) above, with A23Y, W84A counted along it

Eaf3 CD W88A = Eaf3 CD W88A (Saccharomyces cerevisiae, UniProt Q12432, W88A); format: binding; conditions: pH 6.8
Chain of Eaf3 CD W88A (Q12432 1-120 W88A limits assumed): as the sequence (Q12432 1-120 Y23A limits assumed) above, with A23Y, W88A counted along it

Eaf3 CD Y81A = Eaf3 CD Y81A (Saccharomyces cerevisiae, UniProt Q12432, Y81A); format: binding; conditions: pH 6.8
Chain of Eaf3 CD Y81A (Q12432 1-120 Y81A limits assumed): as the sequence (Q12432 1-120 Y23A limits assumed) above, with A23Y, Y81A counted along it

Eaf3 CD (wild-type) = Eaf3 CD (wild-type) (Saccharomyces cerevisiae, UniProt Q12432); assay: biochemical; format: binding
[1] = target: Histone H3 peptide trimethylated at Lys36 (H3K36me3) none (post-translational modification: K36me3) (UniProt P61830); assay: NMR pH titration of the free protein (series of 1H,15N-HSQC spectra; His side-chain Hδ2, Hε1, Nδ1, Nε2 and main-chain N shifts); conditions: pH 5.2-10.5; 25°C
[2] = target: Histone H3 peptide trimethylated at Lys36 (H3K36me3) none (post-translational modification: K36me3) (UniProt P61830); assay: NMR titration (1H,15N-HSQC chemical shift perturbation), Bruker AVANCE-600; conditions: 25°C, 20 mM NaCl (given for pH 6.8 and in the pH 8.5 Tris buffer; the wording leaves open whether NaCl was also present at pH 5.2, 6.0 and 7.5), pH 5.2: 10 mM sodium acetate, pH 6.0 and 7.5: 10 mM potassium phosphate, pH 6.8: 10 mM potassium phosphate, pH 8.5: 10 m
[3] = target: T1, Eaf3 chromodomain (Eaf3 CD, residues 1-120), wild type (S. cerevisiae, UniProt Q12432 1-120); assay: NMR titration; 0.1 mM 15N-labelled WT or mutant Eaf3 CD titrated with unlabelled histone H3 peptide up to 1:88; 10 mM potassium phosphate pH 6.8, 20 mM NaCl, 5 mM DTT, 25°C; Kd by nonlinear fit of chemical shift change; conditions: both partners purified
T1 construct: Eaf3 chromodomain (CD), budding yeast (S. cerevisiae), residues 1-120; 15N-labelled for the NMR experiments; expressed from pET15b; also called WT Eaf3 CD; source: E. coli BL21(DE3)pLysS, purified (Ni-NTA, thrombin, Ni-NTA flow-through, Superdex75)
T1 sequence (looked up): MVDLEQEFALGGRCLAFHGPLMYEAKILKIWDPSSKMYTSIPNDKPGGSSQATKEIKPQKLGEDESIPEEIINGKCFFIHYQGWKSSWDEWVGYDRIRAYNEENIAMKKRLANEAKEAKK

[4] = target: T2, Eaf3 chromodomain (residues 1-120), wild type (Saccharomyces cerevisiae); assay: NMR titration; 0.1 mM 15N-labeled Eaf3 CD titrated with unlabeled histone H3 peptide; 1H,15N-HSQC; 10 mM potassium phosphate pH 6.8, 20 mM NaCl, 5 mM deuterated DTT, 25°C; Kd from the titration curves of Ala25; conditions: both partners purified
T2 construct: Eaf3, Saccharomyces cerevisiae (budding yeast), chromodomain, residues 1-120; 15N-labelled for the NMR titrations; also called Eaf3 CD; WT; source: E. coli BL21(DE3)pLysS, purified (Ni-NTA, thrombin, Ni-NTA, Superdex75)
T2 chain: T1 sequence (looked up)

[5] = target: His18 (UniProt position 18, …); assay: NMR; conditions: 25 °C, free (no histone peptide), folded
[6] = target: the molecule itself; assay: SEC; size exclusion chromatograms of wild-type and mutant Eaf3 CD (Superdex75 in the purification); peaks marked D: dimer, M: monomer
[7] = NMR pH titration of histidine residues (pKa); format: physicochemical
Protocol: A series of ^1H,^15N-HSQC spectra for 0.1–1.1 mM ^15N-labeled Eaf3 CD were recorded at different pH ranging from 5.2 to 10.5 at 25°C on a Bruker AVANCE-600 spectrometer equipped with a cryogenic probe. The observed chemical shift (δobs) was plotted as a function of pH. pKa values were calculated by a nonlinear least-squares fit of the pH titration curves using the following equation, δobs=[δl+δh×10^(pH-pKa)]/[1+10^(pH-pKa)], where δl and δh represent the chemical shift values at extreme low and high pH, respectively.

Molecule: C[C@H](N)C(=O)N[C@@H](CCCNC(=N)N)C(=O)N[C@H](C(=O)N[C@@H](CCCC[N+](C)(C)C)C(=O)N[C@@H](CCC(N)=O)C(=O)N[C@H](C(=O)N[C@@H](C)C(=O)N[C@@H](CCCNC(=N)N)C(=O)N[C@@H](CCCCN)C(=O)N[C@@H](CO)C(=O)N[C@H](C(=O)NCC(=O)NCC(=O)N[C@@H](CCCCN)C(=O)N[C@@H](C)C(=O)N1CCC[C@H]1C(=O)N[C@@H](CCCNC(=N)N)C(=O)N[C@@H](Cc1ccc(O)cc1)C(=O)O)[C@@H](C)O)[C@@H](C)O)[C@@H](C)O [H3K4me3]
- Dissociation constant (Kd) (Eaf3 CD Y23A): N.B.
- Dissociation constant (Kd) (Eaf3 CD W84A): N.B.
- Dissociation constant (Kd) (Eaf3 CD W88A): N.B.
- Dissociation constant (Kd) (Eaf3 CD Y81A): N.B.

Molecule: C[C@H](N)C(=O)N[C@@H](CCCNC(=N)N(C)C)C(=O)N[C@H](C(=O)N[C@@H](CCCC[N+](C)(C)C)C(=O)N[C@@H](CCC(N)=O)C(=O)N[C@H](C(=O)N[C@@H](C)C(=O)N[C@@H](CCCNC(=N)N)C(=O)N[C@@H](CCCCN)C(=O)N[C@@H](CO)C(=O)N[C@H](C(=O)NCC(=O)NCC(=O)N[C@@H](CCCCN)C(=O)N[C@@H](C)C(=O)N1CCC[C@H]1C(=O)N[C@@H](CCCNC(=N)N)C(=O)N[C@@H](Cc1ccc(O)cc1)C(=O)O)[C@@H](C)O)[C@@H](C)O)[C@@H](C)O [H3R2ame2K4me3]
- Dissociation constant (Kd) (Eaf3 CD Y23A): N.B.
- Dissociation constant (Kd) (Eaf3 CD W84A): N.B.
- Dissociation constant (Kd) (Eaf3 CD W88A): N.B.
- Dissociation constant (Kd) (Eaf3 CD Y81A): N.B.

Molecule: C[N+](C)(C)CCCC[C@H](N)C(=O)O [Kme3, tri-methyl-lysine]
- Kd (Eaf3 CD (wild-type)): 4.44 ± 0.23 mM

Molecule: CN(C)C(N)=NCCC[C@H](N)C(=O)O [Rame2, asymmetrically di-methylated arginine]
- Kd (Eaf3 CD (wild-type); pH 6.8, read-out: Dissociation constant (Kd)): > 10 mM

Molecule: Eaf3 chromodomain (Eaf3 CD), wild type
- pKa, His18 of Eaf3 CD [1]: approximately 6.8
- fold change of binding (relative to pH 6.8) ([2]; pH 6.0-6.8): weakened 2.3-fold on going from pH 6.8 to 6.0
- fold change of binding (relative to pH 6.8) ([2]; pH 6.8-7.5): enhanced 2.2-fold on going from pH 6.8 to 7.5
- fold change of binding ([2]; pH 8.5): enhanced a further 3.6-fold at pH 8.5

Molecule: Eaf3 chromodomain H18A H18A
- fold change of binding (relative to pH 6.8) ([2]; pH 5.2): decreased by 1.9-fold at pH 5.2
- fold change of binding (H18A relative to WT) ([2]; pH 6.8): 2.9-fold stronger binding than WT at pH 6.8
- fold change of binding (relative to pH 6.8) ([2]; pH 8.5): slightly enhanced by a factor of 1.2-fold at pH 8.5

Molecule: Eaf3 chromodomain H18D H18D
- fold change of binding (H18D relative to WT) ([2]; pH 6.8): 11.7-fold increase relative to WT at pH 6.8

B1: histone H3 peptide H3K4me2, titration peptide (peptide)
chain: ART[Lys(Me2)]QTARKSTGGKAPRY
- Kd [3]: 4.04 ± 0.11 mM

B2: histone H3 peptide H3T3phoK4me3, titration peptide (printed in Table 1 as H3T3phoK3me3) (peptide)
chain: AR[pT][Lys(Me3)]QTARKSTGGKAPRY
- Kd [3]: 6.52 ± 0.48 mM

B3: Histone H3 peptide dimethylated at Lys36 (H3K36me2), 18 residues (peptide)
peptide: SAPSTGGVK(me2)KPHRYKPGT
notes: histone H3; source: synthetic peptide (bought: Qiagen and SIGMA Genosys)
- Kd [4]: 4.41 ± 0.908 mM

B4: Histone H3 peptide trimethylated at Lys36 (H3K36me3) (peptide)
peptide: SAPSTGGVK(me3)KPHRYKPGT
notes: as for B3
- Kd [4]: 1.94 ± 0.094 mM

B5: Eaf3 chromodomain (Eaf3 CD; essential Sas2-related acetyltransferase 1-associated factor 3) (Saccharomyces cerevisiae) (protein)
chain: T1 sequence (looked up)
- pKa ([5]; not stated for the pH titration, the authors state that the pH changes did not disrupt the structure): approximately 6.8

B6: Eaf3 chromodomain (residues 1-120) G19A (domain or fragment, Saccharomyces cerevisiae, UniProt Q12432 1-120, looked up)
chain: T1 sequence (looked up) with G19A
notes: Eaf3, Saccharomyces cerevisiae, chromodomain, residues 1-120; source: E. coli BL21(DE3)pLysS, purified (Ni-NTA, thrombin, Ni-NTA, Superdex75)
- stoichiometry N [6]: 2

B7: Eaf3 CD: chromodomain (residues 1−120) of budding yeast Eaf3 (protein)
chain: T1 sequence (looked up)
modifications: left off: His6, end not stated, cleaved
notes: chromodomain (residues 1−120) of budding yeast Eaf3
- observed pKa value of His18 ([7]; NMR pH titration, 25°C, overall): approximately 6.8
- fraction of Eaf3 CD molecules with protonated His18 ([7]; at pH 5.2): almost all
- fraction of Eaf3 CD molecules protonated at His18 ([7]; at physiological pH of 6.8): almost half

B8: Eaf3 chromodomain (Eaf3 CD; essential Sas2-related acetyltransferase1-associated factor 3) (Saccharomyces cerevisiae) (protein)
chain: T1 sequence (looked up)
- pKa ([5]; the authors state that the pH changes caused no disruption of structure): 6.47

B9: Eaf3 chromodomain (residues 1-120) Y23A (domain or fragment, Saccharomyces cerevisiae, UniProt Q12432 1-120, looked up)
chain: T1 sequence (looked up) with Y23A
notes: as for B6
- stoichiometry N [6]: 2
